From article doi:10.1101/2021.08.25.457676, “Binding of AP endonuclease-1 to G-quadruplex DNA depends on the N-terminal domain, Mg2+ and ionic strength”

What was measured:
Δ33-D210A-APE1 = Δ33-D210A-APE1 (Homo sapiens, UniProt P27695 34-318, D210A;del1-33); assay: fluorescence anisotropy; 10 mM Mg2+, 50 mM K+; 20 mM Tris pH 7.4, 50 mM KOAc (or 140 mM K+ / 50 mM Li+), 0, 1 or 10 mM Mg(OAc)2, 1 mM DTT, 22 °C, 100 nM FAM-DNA, APE1 0-5000 nM; conditions: protein: recombinant; tags: His (pET28HIS-hAPE1); label: 5' FAM; intramolecular parallel G4 in K+; unfolded in Li+
D210A-APE1 [1] = target: T1, D210A-APE1 (Homo sapiens, UniProt P27695 1-318, D210A); assay: as above; conditions: protein: recombinant; tags: His (pET28HIS-hAPE1); label: 5' FAM; intramolecular parallel G4 in K+; unfolded in Li+
D210A-APE1 [2] = target: T1, D210A-APE1; assay: fluorescence anisotropy; 140 mM K+; 20 mM Tris pH 7.4, 50 mM KOAc (or 140 mM K+ / 50 mM Li+), 0, 1 or 10 mM Mg(OAc)2, 1 mM DTT, 22 °C, 100 nM FAM-DNA, APE1 0-5000 nM; conditions: protein: recombinant; tags: His (pET28HIS-hAPE1); label: 5' FAM; intramolecular parallel G4 in K+; unfolded in Li+
APE1 (WT) = APE1 (WT) (Homo sapiens, UniProt P27695 1-318); assay: fluorescence anisotropy; 0 Mg2+, EDTA, 50 mM K+; 20 mM Tris pH 7.4, 50 mM KOAc (or 140 mM K+ / 50 mM Li+), 0, 1 or 10 mM Mg(OAc)2, 1 mM DTT, 22 °C, 100 nM FAM-DNA, APE1 0-5000 nM; conditions: protein: recombinant; tags: His (pET28HIS-hAPE1, Addgene 70757); label: 5' FAM; intramolecular parallel G4 in K+; unfolded in Li+
Sequence of APE1 (WT) (P27695 whole entry): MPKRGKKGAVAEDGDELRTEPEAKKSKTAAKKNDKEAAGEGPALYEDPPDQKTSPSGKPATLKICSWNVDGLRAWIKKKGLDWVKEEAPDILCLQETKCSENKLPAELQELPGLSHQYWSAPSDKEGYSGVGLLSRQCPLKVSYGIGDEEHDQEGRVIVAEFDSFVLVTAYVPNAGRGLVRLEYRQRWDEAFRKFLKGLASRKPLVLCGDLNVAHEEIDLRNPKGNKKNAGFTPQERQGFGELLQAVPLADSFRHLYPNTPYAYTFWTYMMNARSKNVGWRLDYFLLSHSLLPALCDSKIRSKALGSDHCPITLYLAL

T1 sequence (P27695 whole entry D210A): as the sequence (P27695 whole entry) above, with D210A counted along it
Sequence of Δ33-D210A-APE1 (P27695 34-318 D210A): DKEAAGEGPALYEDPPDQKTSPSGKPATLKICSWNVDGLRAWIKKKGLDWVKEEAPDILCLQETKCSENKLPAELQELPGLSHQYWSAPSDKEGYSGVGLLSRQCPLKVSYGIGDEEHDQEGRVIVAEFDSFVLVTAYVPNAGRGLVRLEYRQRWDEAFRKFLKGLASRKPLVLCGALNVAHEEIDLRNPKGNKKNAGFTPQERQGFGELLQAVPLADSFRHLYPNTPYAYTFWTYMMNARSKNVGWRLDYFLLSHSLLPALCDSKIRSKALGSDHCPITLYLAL

Binder: CGGGGCGGGCCGGGGGCGGGGT (structured_DNA) [VEGF-4]
- Kd (Δ33-D210A-APE1): 230 ± 40 nM
- Kd (D210A-APE1 [1]): 55 ± 4 nM
- Kd (D210A-APE1 [2]): 20 nM
- Kd (APE1 (WT)): 190 ± 50 nM
